Laboratory results published in the supplement of paper PMC10126150.
± gives the standard deviation of the averaged measurements.

Test system: ATP
Assay: switch fluorescence ratio, 500 uM ATP over buffer (Cy3 cluster intensity, sum of 5 cycles each) (fold (ratio)); higher = stronger signal-on switching upon ATP binding; sequences stand for … in TCGTCGGCAGCGTCAGATGTGTATAAGAGACAGTTTTTTTTTTTTTTTTTTTTTTTTT…TC
Details: aptamer strand: ATP DNA aptamer (quencher-CACCTGGGGGAGTATTGCGGAGGAAGG + anchor), 100 nM annealed; ATP concentration: 500 uM
Outline: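 Values give the fluorescence ratio for each switch-domain sequence, averaged from per-cluster ratios of summed target-cycle to summed buffer-cycle Cy3 intensity. The Cy3-labelled switching-strand clusters sat on a modified Illumina MiSeq flow-cell, were annealed to 100 nM quencher-labelled ATP aptamer, and were imaged in selection buffer, then after 15 min with 500 uM ATP at 22 °C. Five cycles ran with NaOH stripping and re-annealing between them, and clusters outside 100-1000 RFU were excluded.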
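Note: ATP exposure 15 min at 22 °C before imaging.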

Sequence	switch fluorescence ratio
ATCTTTGCTA	1 ± 0.036
ATGAAAAATT	1.01 ± 0.031
ATGAAAACGT	1 ± 0.014
ATGAAAGCAC	1.09 ± 0.061
ATGAAATAGT	0.959 ± 0.046
ATGAACATTT	1 ± 0.033
ATGAAGATTA	0.987 ± 0.043
ATGAAGTCGC	1.01 ± 0.025
ATGAATCTCG	0.9898 ± 0.0075
ATGACGCGGA	1.048 ± 0.0097
ATGACTTACG	1.08 ± 0.02
ATGAGAAGTT	1.01 ± 0.007
ATGAGATCAG	1.003 ± 0.005
ATGAGCATGG	1.1 ± 0.016
ATGAGCCACT	0.994 ± 0.03
ATGAGCGACG	0.9921 ± 0.0088
ATGAGGAGTT	0.996 ± 0.025
ATGAGGCCTT	1.01 ± 0.019
ATGAGGGCTA	0.983 ± 0.044
ATGAGGGGAA	1.04 ± 0.034
ATGAGTACAG	1.02 ± 0.027
ATGAGTGTGG	1.02 ± 0.021
ATGATATCTA	0.993 ± 0.022

Sequence	switch fluorescence ratio
ATGATATGGT	0.983 ± 0.029
ATGATCGATG	0.979 ± 0.026
ATGATCGGGT	1.02 ± 0.031
ATGATGGGT	1.01 ± 0.028
ATGATTAAGA	1.02 ± 0.019
ATGATTGGAT	0.996 ± 0.029
ATGATTGGTT	1 ± 0.022
ATGATTGTGG	0.997 ± 0.028
ATGATTTAAC	0.976 ± 0.035
ATGATTTGGT	0.983 ± 0.026
ATGATTTTTT	0.985 ± 0.012
ATGCAAATGC	1.41 ± 0.017
ATGCAAGGTC	1.12 ± 0.049
ATGCACCTCG	1.025 ± 0.006
ATGCAGATCC	1.04 ± 0.042
ATGCATATGG	1.03 ± 0.013
ATGCATTTTA	0.999 ± 0.045
ATGCATTTTT	1.02 ± 0.043
ATGCCAAAGG	1.01 ± 0.055
ATGCCATTAG	0.967 ± 0.02
ATGCCTGATA	0.963 ± 0.029
ATGCGAGCAA	1.11 ± 0.019
ATGCGATCAA	1.02 ± 0.014

Sequence	switch fluorescence ratio
ATGCGGACAG	1.011 ± 0.0083
ATGCGGGTTC	1.01 ± 0.012
ATGCGGTCTG	1.04 ± 0.028
ATGCTATACT	1.6 ± 0.022
ATGCTCTTAT	1 ± 0.012
ATGCTGGTGG	0.978 ± 0.046
ATGCTGTCTG	1 ± 0.043
ATGCTTAGGG	0.944 ± 0.02
ATGGAAGAGG	0.982 ± 0.018
ATGGAATTGT	0.986 ± 0.022
ATGGACAGGT	1.04 ± 0.031
ATGGAGAGAG	0.9929 ± 0.004
ATGGAGTAAA	1.005 ± 0.0084
ATGGAGTCGG	0.986 ± 0.021
ATGGATAGTC	0.986 ± 0.044
ATGGATATAT	0.995 ± 0.016
ATGGATTGCA	0.994 ± 0.023
ATGGATTGTG	0.983 ± 0.011
ATGGATTTAA	1.012 ± 0.0041
ATGGATTTAC	1.06 ± 0.028
ATGGCAAAGA	0.9828 ± 0.0096
ATGGCAGGAT	1 ± 0.063
ATGGCAGGTA	0.992 ± 0.033

Sequence	switch fluorescence ratio
ATGGCATAAG	1.003 ± 0.0044
ATGGCGGACG	0.981 ± 0.05
ATGGCGGGTT	1 ± 0.016
ATGGCTGGCG	1.07 ± 0.094
ATGGCTGGGT	0.971 ± 0.029
ATGGCTTCGT	1.03 ± 0.021
ATGGGACGGT	1.03 ± 0.036
ATGGGAGAAA	1.01 ± 0.0045
ATGGGAGGGG	1.01 ± 0.035
ATGGGAGTTT	1.01 ± 0.01
ATGGGATACT	1.03 ± 0.033
ATGGGCATC	0.9882 ± 0.0058
ATGGGCGAGC	0.981 ± 0.046
ATGGGCGGCC	1.0476 ± 0.00053
ATGGGGACTA	1.0122 ± 0.00084
ATGGGGAGTC	0.985 ± 0.035
ATGGGGATGA	0.9776 ± 0.004
ATGGGGCAGC	1 ± 0.025
ATGGGGCATC	0.9907 ± 0.0082
ATGGGGCTCT	0.9967 ± 0.0067
ATGGGGCTGT	0.979 ± 0.034
ATGGGGGAGG	1.009 ± 0.0031
ATGGGGGATC	1.008 ± 0.0082

Sequence	switch fluorescence ratio
ATGGGGGCTG	1.02 ± 0.047
ATGGGGGGAA	0.996 ± 0.037
ATGGGGGTAC	0.998 ± 0.014
ATGGGGGTCG	0.98 ± 0.05
ATGGGGTACG	0.972 ± 0.06
ATGGGGTCGA	1 ± 0.051
ATGGGGTTAA	1.03 ± 0.022
ATGGGTAAGG	0.983 ± 0.019
ATGGGTATCT	0.994 ± 0.033
ATGGGTGAAA	0.9867 ± 0.0084
ATGGGTGGCT	1.011 ± 0.007
ATGGGTTAGA	1.05 ± 0.037
ATGGGTTTAA	0.961 ± 0.063
ATGGGTTTTT	0.979 ± 0.029
ATGGTAAGAC	1.14 ± 0.062
ATGGTAAGGG	0.991 ± 0.026
ATGGTAGAAA	1.02 ± 0.012
ATGGTATAAC	1.01 ± 0.015
ATGGTATCGG	1.026 ± 0.0074
ATGGTATTTT	1.01 ± 0.013
ATGGTCATAA	0.993 ± 0.022
ATGGTCCCTG	0.997 ± 0.035
ATGGTCCGAG	0.998 ± 0.018

Sequence	switch fluorescence ratio
ATGGTCGGCC	0.9831 ± 0.0052
ATGGTGAGGG	0.962 ± 0.011
ATGGTGCGGC	1.008 ± 0.0018
ATGGTGCTGG	0.983 ± 0.035
ATGGTGGGT	0.978 ± 0.033
ATGGTGTCTA	0.981 ± 0.038
ATGGTTAGTG	0.975 ± 0.011
ATGGTTGGTA	0.995 ± 0.038
ATGGTTGGTC	0.97 ± 0.023
ATGGTTGTGC	0.991 ± 0.026
ATGGTTGTTC	1.07 ± 0.16
ATGTAAATGT	1.041 ± 0.0077
ATGTAACGAG	1.01 ± 0.022
ATGTAACTCG	1.03 ± 0.044
ATGTAACTGT	0.976 ± 0.033
ATGTAACTTA	1.03 ± 0.027
ATGTAAGGCG	1.014 ± 0.0076
ATGTACGAAT	1.004 ± 0.0025
ATGTAGGCGT	0.967 ± 0.021
ATGTAGGGGG	0.988 ± 0.013
ATGTAGGGGT	1.04 ± 0.093
ATGTAGGGTT	1.036 ± 0.0048
ATGTAGTAGT	1 ± 0.034

Sequence	switch fluorescence ratio
ATGTAGTCTT	1 ± 0.0038
ATGTAGTGCA	0.995 ± 0.034
ATGTATAGGC	0.962 ± 0.06
ATGTATATAG	0.978 ± 0.012
ATGTATTAGG	0.997 ± 0.025
ATGTATTTGG	1.01 ± 0.014
ATGTCAAAGC	0.984 ± 0.063
ATGTCAGAGA	1.02 ± 0.037
ATGTCATGCG	1.02 ± 0.045
ATGTCCCAAG	0.99 ± 0.042
ATGTCCGAGG	1.028 ± 0.0019
ATGTCGACAG	1 ± 0.043
ATGTCGTCTC	1.003 ± 0.0091
ATGTCGTGGG	1.01 ± 0.037
ATGTCTGGGC	0.977 ± 0.014
ATGTGAAAGG	1.02 ± 0.018
ATGTGACGCA	1.13 ± 0.012
ATGTGACTCT	1.01 ± 0.043
ATGTGAGAAT	0.998 ± 0.037
